Test results from patent US20180185504A1 (Regeneron, published 2018).
Where two headings read alike, the source gives them in different places.

B1: H1H6960N-DM1 (antibody, human IgG1, V domains shown)
VH: EVQLVESGGGLVKPGGSLRLSCAASGITFSSYSMNWVRQAPGKGLEWVSSISTRSSLIHYADSVKGRFTISRDNAKNSLYLQMNSLRDEDTAVYYCARWDAAAAFDYWGQGTLVIVSS
VL: DIQLTQSPSFLSASVGDRVTITCWASQGISSYLAWYQQKPGKAPKLLIYVASTLQSGVPSRFSGSGSGTEFTLTISSLQPEDFATYFCQQLNSYPLTFGGGTKVEIK
modifications: DM1 conjugated through SMCC linker; attachment residues not stated
B2: H1H6762P-DM1 (antibody, human IgG1, V domains shown)
VH: QVQLVESGGGVVQPGRSLRLSCAASGFTFSHYGMVWVRQPPGKGLEWVALISFDGTTKYYADSVKGRFTISRDNSKNTLYLQMNSLRAEDTAVYFCVGAIAAAAFDLWGRGTLVTVSS
VL: EIVMTQSPATLSVSPGERATLSCRASQSVSSDLAWYQQKPGQAPRLLIYSASARATGIPARFTGSGSGTDFTLTISSLQSEDFAVYYCQQYNNWPMYTFGQGTKLEIK
modifications: DM1 conjugated through SMCC linker; attachment residues not stated
B3: H1H6793P-DM1 (antibody, human IgG1, V domains shown)
VH: EVQLVESGGGLVQPGGSLRLSCAASGFSFSIYAMSWFRQAPGKGLEWVSAINGRGDGTHYADSVKGRFTISRDNSKTTLYLQMSSLRAEDTAVYYCAKPVMSTNGFDIWGQGTMVTVSS
VL: DIQMTQSPSTLSASVGDRVTITCRASQSISSWLAWYQLKPGKAPKLLIYKASNLESGVPSRFSGSGSGTEFTLTISSLQPDDFATYYCQQYNIYWTFGQGTKVEIK
modifications: DM1 conjugated through SMCC linker; attachment residues not stated
B4: H1H6800P-DM1 (antibody, human IgG1, V domains shown)
VH: EVQLVESGGGLVQPGRSLRLSCAASGFTFDGYAMHWVRQGPGKGLEWVSGISWYSDTLGYADSVKGRFTISRDNAKNSLYLQMNSLRTEDTAFYYCAKISSSGWAFDYWGQGTLVTVSS
VL: EIVLTQSPGTLSLSPGERATLSCRASHSVSSAYLAWYQQKPGQTPRLLIYGTSSRATGIPDRFSGSGSGTDFTLTISRLEPEDFAVYYCQQYGSSPLFTFGPGTKVDIK
modifications: DM1 conjugated through SMCC linker; attachment residues not stated
B5: H1H6803P-DM1 (antibody, human IgG1, V domains shown)
VH: EVQLVESGGGVVRPGGSLRLSCAASGFKFDDYGMTWVRHVPGKGLEWVSGINWNGGRTGYTDSVKGRFTISRDNAKNSLYLQMNSLRAEDTALYHCAGARRDAFDIWGQGTMVTVSS
VL: DIQMTQSPSSLSASIGDRVTITCRASQNIIKYLNWYQQNAGKAPKLLIYTASSLQSGVPSRFSGSGSGTDFTLTISSLQPEDFATYYCQQSSSSPYTFGQGTKLEIK
modifications: DM1 conjugated through SMCC linker; attachment residues not stated
B6: H1H6959N2-DM1 (antibody, human IgG1, V domains shown)
VH: EVQLVESGGGLVQPGRSLRLSCAASGFTFDDYAMHWVRQAPGKGLEWVSGISWHSGIIGYADSVKGRFTISRDNAKNSLYLQMNSLRTEDAALYYCAKIGSYFYFDSWGQGTLVTVSS
VL: EIVLTQSPGTLSLSPGERATLSCRASQSVSSNYLAWYQQKPGQAPRLLIYGASSRATGIPDRFSGSGSGTDFTLTISRLEPEDFAVYYCQQFGSSGYTFGQGTNLEIK
modifications: DM1 conjugated through SMCC linker; attachment residues not stated
B7: H1H6953N-mc-VC-PAB-MMD (antibody, human IgG1, V domains shown)
VH: EVQLLESGGGLVQPGGTLRLSCAASGFTFSAYAMSWVRQAPGKGLEWVSSINVRAGDTYYADSVKGRFTISRDNSKNTLFLLMNSLRAEDTAAYYCAKARYSSNWGFDFWGQGTLVTVSS
VL: DIVMTQSPDSLTVSLGARTTINCQSSQTILHSSNNHNYLAWYQQKPGLPPKLLIYWSSTRESGVPDRFSGSGSGTDFTLTISSLQAEDVAIYYCQQYSNTPYTFGQGTKLEIN
modifications: MMD conjugated through mc-VC-PAB linker; attachment residues not stated
B8: H1H6953N-mc-VC-PAB-MeNHC3-May (antibody, human IgG1, V domains shown)
VH: EVQLLESGGGLVQPGGTLRLSCAASGFTFSAYAMSWVRQAPGKGLEWVSSINVRAGDTYYADSVKGRFTISRDNSKNTLFLLMNSLRAEDTAAYYCAKARYSSNWGFDFWGQGTLVTVSS
VL: DIVMTQSPDSLTVSLGARTTINCQSSQTILHSSNNHNYLAWYQQKPGLPPKLLIYWSSTRESGVPDRFSGSGSGTDFTLTISSLQAEDVAIYYCQQYSNTPYTFGQGTKLEIN
modifications: MeNHC3-May conjugated through mc-VC-PAB linker; attachment residues not stated
B9: H1H6958N2-SPDB-DM4 (antibody, human IgG1, V domains shown)
VH: QVQLVESGGGVVQPGRSLRLSCGASGFTFRNYGMQWVRQGPGKGLEWVTLISFDGNDKYYADSVKGRFTISRDNSKNTLFLQMNSLRTEDTAVYYCARGGDFDYWGQGTLVTVSS
VL: DIQMTQSPSSLSASVGDRVTITCRASQDIRKDLGWYQQKPGKAPKRLIYAASSLHSGVPSRFSGSGSGTEFTLTISSLQPEDFATYYCLQHNSYPMYTFGQGTKLEIK
modifications: DM4 conjugated through SPDB linker; attachment residues not stated
B10: H1H6960N (antibody, human IgG1, V domains shown)
VH: EVQLVESGGGLVKPGGSLRLSCAASGITFSSYSMNWVRQAPGKGLEWVSSISTRSSLIHYADSVKGRFTISRDNAKNSLYLQMNSLRDEDTAVYYCARWDAAAAFDYWGQGTLVIVSS
VL: DIQLTQSPSFLSASVGDRVTITCWASQGISSYLAWYQQKPGKAPKLLIYVASTLQSGVPSRFSGSGSGTEFTLTISSLQPEDFATYFCQQLNSYPLTFGGGTKVEIK
notes: Tested with human IgG1 Fc (H1H); also called H2M6960N

How the values were obtained:
[1] = target: T1, human prolactin receptor (PRLR) (human, UniProt P16471 25-622); assay: cell-based or functional assay
T1 sequence: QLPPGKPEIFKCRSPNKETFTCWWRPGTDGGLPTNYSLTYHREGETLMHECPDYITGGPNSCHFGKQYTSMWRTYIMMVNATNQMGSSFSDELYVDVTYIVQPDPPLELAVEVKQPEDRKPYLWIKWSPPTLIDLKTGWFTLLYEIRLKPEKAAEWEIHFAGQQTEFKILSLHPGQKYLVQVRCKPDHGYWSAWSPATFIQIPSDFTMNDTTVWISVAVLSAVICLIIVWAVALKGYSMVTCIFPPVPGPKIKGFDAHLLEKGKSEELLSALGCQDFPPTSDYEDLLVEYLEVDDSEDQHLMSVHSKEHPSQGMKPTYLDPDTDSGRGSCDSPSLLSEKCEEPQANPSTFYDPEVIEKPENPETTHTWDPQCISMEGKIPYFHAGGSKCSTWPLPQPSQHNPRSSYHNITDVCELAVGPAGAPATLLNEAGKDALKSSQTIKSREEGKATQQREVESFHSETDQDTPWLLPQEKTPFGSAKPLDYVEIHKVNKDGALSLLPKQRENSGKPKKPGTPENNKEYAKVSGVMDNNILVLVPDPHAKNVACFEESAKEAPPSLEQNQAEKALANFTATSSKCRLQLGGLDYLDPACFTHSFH

[2] = target: T1, human prolactin receptor (PRLR); assay: cell-based or functional assay; remark: listed apart in the source
[3] = target: T1, human prolactin receptor (PRLR); assay: cell-based or functional assay; remark: listed apart in the source
[4] = target: T1, human prolactin receptor (PRLR); assay: cell-based or functional assay; remark: listed apart in the source
[5] = target: T2, hPRLR.mmh (soluble monomeric human PRLR) (human); assay: SPR Biacore, 25 C, mAb capture
T2 construct: called soluble monomeric PRLR protein
T2 chain: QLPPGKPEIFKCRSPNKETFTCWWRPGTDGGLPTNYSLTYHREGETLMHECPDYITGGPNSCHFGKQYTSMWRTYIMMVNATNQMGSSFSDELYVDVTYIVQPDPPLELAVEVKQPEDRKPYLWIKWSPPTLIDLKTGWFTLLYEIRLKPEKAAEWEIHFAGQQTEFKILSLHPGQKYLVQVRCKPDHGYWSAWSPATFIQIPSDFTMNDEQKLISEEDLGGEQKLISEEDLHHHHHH
Procedure: (§1) Measurements were conducted on a T200 Biacore instrument. Kinetic association (kₐ) and dissociation (kd) rate constants were determined by processing and fitting the data to a 1:1 binding model using Scrubber 2.0 curve fitting software.

[6] = target: T3, hPRLR.mFc (soluble dimeric human PRLR) (human); assay: SPR Biacore, 25 C, mAb capture
T3 construct: dimeric PRLR construct
T3 chain: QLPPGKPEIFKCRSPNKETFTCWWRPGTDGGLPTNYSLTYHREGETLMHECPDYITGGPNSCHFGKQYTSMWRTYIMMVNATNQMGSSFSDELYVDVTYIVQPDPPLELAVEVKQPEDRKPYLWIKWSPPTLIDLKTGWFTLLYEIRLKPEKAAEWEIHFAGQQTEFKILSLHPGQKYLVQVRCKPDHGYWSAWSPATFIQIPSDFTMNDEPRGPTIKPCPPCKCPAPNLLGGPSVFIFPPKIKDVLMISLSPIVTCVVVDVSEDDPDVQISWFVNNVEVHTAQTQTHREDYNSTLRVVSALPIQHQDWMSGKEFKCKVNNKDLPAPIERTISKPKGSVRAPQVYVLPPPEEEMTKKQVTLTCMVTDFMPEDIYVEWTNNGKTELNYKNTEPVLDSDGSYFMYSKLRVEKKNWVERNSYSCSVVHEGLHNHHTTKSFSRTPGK
Procedure: as §1

[7] = target: T4, macaca fascicularis (mf) PRLR.mmh (soluble monomeric monkey PRLR) (Macaca fascicularis); assay: SPR Biacore, 25 C, mAb capture
T4 construct: called soluble monomeric PRLR protein
T4 chain: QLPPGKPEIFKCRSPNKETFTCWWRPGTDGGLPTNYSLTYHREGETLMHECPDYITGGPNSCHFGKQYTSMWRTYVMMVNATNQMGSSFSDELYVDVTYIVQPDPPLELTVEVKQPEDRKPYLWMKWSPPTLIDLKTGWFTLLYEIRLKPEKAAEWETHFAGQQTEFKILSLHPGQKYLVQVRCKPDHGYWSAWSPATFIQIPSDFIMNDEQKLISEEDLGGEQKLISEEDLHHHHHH
Procedure: as §1

Binder | % Kill, PC3/PRLR cells [1] [%] | IC50, cell viability, PC3/PRLR cells [1] [nM] | % Kill, MCF7/PRLR cells [2] [%] | % Kill, MCF7 cells [2] [%] | % Kill, T47D cells [2] [%] | IC50, cell viability, MCF7/PRLR cells [2] [nM] | IC50, cell viability, MCF7 cells [2] [nM] | IC50, cell viability, T47D cells [2] [nM] | % Kill, T47D cells [3] [%] | IC50, cell viability, T47D cells [3] [nM] | % Kill, MCF7/ATCC cells [4] [%] | % Kill, MCF7/PRLR cells [4] [%] | IC50, cell viability, MCF7/ATCC cells [4] [nM] | IC50, cell viability, MCF7/PRLR cells [4] [nM] | also measured
B1 | 82 | 1.13 | 78 | 77 | 71 | 0.29 | 100 | 5.1 | – | – | – | – | – | – | % Kill, 293/PRLR cells [1]: 95%; IC50, cell viability, 293/PRLR cells [1]: 0.38 nM
B2 | 66 | 0.98 | 83 | 64 | 80 | 0.46 | 110 | 12.6 | – | – | – | – | – | – | –
B3 | 65 | 3.65 | 87 | 67 | 53 | 0.54 | 125 | 11.1 | – | – | – | – | – | – | –
B4 | 68 | 1.37 | 85 | 65 | 79 | 0.4 | 150 | 3.2 | – | – | – | – | – | – | –
B5 | 70 | 2.32 | 84 | 60 | 77 | 0.44 | 150 | 8.61 | – | – | – | – | – | – | –
B6 | 82 | 11.6 | 80 | 82 | 71 | 0.47 | 100 | 48.9 | – | – | – | – | – | – | % Kill, 293/PRLR cells [1]: 95%; IC50, cell viability, 293/PRLR cells [1]: 4.82 nM
B7 | – | – | – | – | – | – | – | – | 90 | 1 | 50 | 90 | 300 | 0.2 | –
B8 | – | – | – | – | – | – | – | – | 90 | 1 | 60 | 80 | 150 | 0.2 | –
B9 | – | – | – | – | – | – | – | – | 100 | 1 | 80 | 90 | 25 | 0.8 | –
B10 | – | – | – | – | – | – | – | – | – | – | – | – | – | – | Kd [5]: 6.74 nM; T½ [5]: 15.8 min; koff [5]: 0.000729 s⁻¹; kon [5]: 108000 M⁻¹ s⁻¹; Kd [6]: 0.141 nM; T½ [6]: 324 min; koff [6]: 3.56e-05 s⁻¹; kon [6]: 252000 M⁻¹ s⁻¹; Kd [7]: 6.2 nM; T½ [7]: 19.8 min; koff [7]: 0.000583 s⁻¹; kon [7]: 94000 M⁻¹ s⁻¹
